In one data set the target is T1, NEPv (NEP G399V/G714K) (Homo sapiens, UniProt P08473, G400V/G715K).
T1 construct: DNA encoding amino acids 52–749 of human NEP variants was amplified by PCR; made in house; host or cells: CHO suspension cells (transient, secreted)
Briefly: Inhibition of Aβ1–40 cleavage activity, fluorescence polarisation. It counts as biochemical. The protocol:
(§1) The effect of inhibitors on NEP activity was determined using the above fluorescence polarisation assay to measure the rate of Aβ1–40 cleavage with a substrate concentration of 10 µM, an enzyme concentration of 20 nM and inhibitor concentrations in the range 2 nM to 100 µM.

In another data set the target is T2, wild-type NEP (Homo sapiens, UniProt P08473).
T2 construct: DNA encoding amino acids 52–749 of human NEP variants was amplified by PCR; made in house; host or cells: CHO suspension cells (transient, secreted)
T2 sequence (P08473 53-750): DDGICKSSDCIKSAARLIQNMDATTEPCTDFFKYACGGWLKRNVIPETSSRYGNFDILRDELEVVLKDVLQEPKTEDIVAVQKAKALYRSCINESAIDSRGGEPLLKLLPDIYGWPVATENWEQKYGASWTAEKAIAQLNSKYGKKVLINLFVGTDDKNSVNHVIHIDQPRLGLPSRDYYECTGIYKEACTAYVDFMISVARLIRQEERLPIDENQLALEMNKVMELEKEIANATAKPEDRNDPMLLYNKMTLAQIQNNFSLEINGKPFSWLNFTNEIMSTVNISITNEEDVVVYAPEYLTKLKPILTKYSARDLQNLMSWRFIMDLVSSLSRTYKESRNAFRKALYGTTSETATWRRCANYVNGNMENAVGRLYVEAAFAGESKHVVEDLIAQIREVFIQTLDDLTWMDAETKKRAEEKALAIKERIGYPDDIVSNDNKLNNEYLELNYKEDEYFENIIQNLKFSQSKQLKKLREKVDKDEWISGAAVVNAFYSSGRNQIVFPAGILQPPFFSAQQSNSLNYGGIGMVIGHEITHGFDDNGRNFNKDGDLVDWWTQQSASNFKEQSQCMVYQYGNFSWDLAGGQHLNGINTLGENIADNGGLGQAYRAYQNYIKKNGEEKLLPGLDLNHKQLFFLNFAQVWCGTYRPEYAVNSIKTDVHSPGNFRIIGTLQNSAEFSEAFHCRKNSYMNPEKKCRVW
Described as above. It counts as biochemical. To be noted: enzyme wild-type NEP 20 nM; Aβ1–40 substrate 10 µM. The protocol: as §1

Another data set has as its target NEP G399V (Homo sapiens, UniProt P08473, G400V). Briefly: biochemical. The procedure: as §1
Another data set addresses NEP G714K (Homo sapiens, UniProt P08473, G715K). The experiment in a line: biochemical. The protocol: as §1
The subject of a further data set is ANP. The experiment in a line: Steady-state kinetics of peptide cleavage, fluorescence polarisation. Particulars: substrate ANP; 37°C, pH 7.4. The format is biochemical. The protocol: (§2) For detailed kinetic characterisation of peptide cleavage by NEP, a similar assay to that above was used with modifications based on a published method. Peptides were synthesised by Bachem using 9-fluorenylmethyloxycarbonyl solid-phase peptide synthesis and were labelled with a N-terminal 5(6)FAM via a ε-aminocaproic acid linker and a C-terminal biotin via a lysine linker (Table S1). Purified peptides were supplied as trifluoroacetate salts with a purity ≥95%. The assay was performed in a 96-well microtitre plate and contained 50 mM HEPES (pH 7.4), 100 mM NaCl, 0.05% (w/v) BSA (Buffer A), 1–200 µM peptide substrate and 1–500 nM NEP protein. Reactions were incubated at 37°C before being stopped at various time points between 2 and 360 min by transferring 5 µL aliquots to 245 µL Buffer A containing 2 mM 1,10-phenanethroline (Sigma) and 2 µM avidin (Invitrogen). For peptide substrates containing disulphide bonds, 1 mM tris(2-carboxyethyl)phosphine (Thermo Scientific) was added to the stop solution. The fluorescence polarisation of the resulting solution was measured on a Victor plate reader and the amount of substrate cleaved was determined with reference to substrate-only controls with and without avidin. Initial rates were obtained by linear regression of the linear regions of time courses. Enzyme velocity was plotted as a function of substrate concentration and the Michaelis-Menten equation was used to fit the data, giving the parameters kcat and KM.
Background: Polarisation of emitted light reports the rotation of a fluorescent probe.

The next data set deals with Angiotensin. The description is as above. It counts as biochemical. Particulars: substrate Angiotensin; 37°C, pH 7.4. The procedure:
as §2

A further data set relates to Arg-vasopressin. Described as above. Particulars: substrate Arg-vasopressin; 37°C, pH 7.4. It counts as biochemical. The procedure:
as §2

Data set [1] relates to Aβ1–40. The description is as above. The format is biochemical. Particulars: substrate Aβ 1–40; 37°C, pH 7.4. The procedure:
as §2

Another data set has as its system Bradykinin. Described as above. It counts as biochemical. To be noted: substrate Bradykinin; 37°C, pH 7.4. The protocol:
as §2

The next data set has as its system GLP-1. Described as above. The format is biochemical. Particulars: substrate GLP-1; 37°C, pH 7.4. The procedure:
as §2

For the next data set, the system named is GRP. The data set is described as above. To be noted: substrate GRP; 37°C, pH 7.4. The format is biochemical. The protocol: as §2
The subject of the next data set is Glucagon. The data set is described as above. To be noted: substrate Glucagon; 37°C, pH 7.4. It counts as biochemical. The procedure:
as §2

For another data set, the system named is Neurokinin A. The data set is described as above. The format is biochemical. To be noted: substrate Neurokinin A; 37°C, pH 7.4. The protocol:
as §2

The subject of another data set is Neurokinin B. Described as above. The format is biochemical. To be noted: substrate Neurokinin B; 37°C, pH 7.4. The protocol:
as §2

The test system of another data set is Neurotensin. Described as above. It counts as biochemical. Particulars: substrate Neurotensin; 37°C, pH 7.4. The procedure:
as §2

For another data set, the system named is Nociceptin. The data set is described as above. It counts as biochemical. To be noted: substrate Nociceptin; 37°C, pH 7.4. The procedure:
as §2

The next data set relates to Somatostatin 14. Described as above. To be noted: substrate Somatostatin 14; 37°C, pH 7.4. It counts as biochemical. The procedure:
as §2

A further data set has as its system Substance P. Described as above. The format is biochemical. Particulars: substrate Substance P; 37°C, pH 7.4. The procedure:
as §2

A further data set has as its system α-endorphin. The description is as above. The format is biochemical. To be noted: substrate α-endorphin; 37°C, pH 7.4. The protocol:
as §2

In the next data set the test system is γ-endorphin. The data set is described as above. It counts as biochemical. To be noted: substrate γ-endorphin; 37°C, pH 7.4. The procedure: as §2
The next data set concerns Endothelin-1. Briefly: Steady-state kinetics of endothelin-1 cleavage, stopped assay with RP-HPLC. It counts as biochemical. To be noted: substrate Endothelin-1 (unlabelled); RP-HPLC, 10 min at 37°C. The procedure:
Kinetic parameters for cleavage of endothelin-1 by NEP were determined using a stopped assay in which the amount of substrate cleaved was measured using reversed-phase HPLC (RP-HPLC). Endothelin-1 was incubated at 12.5–200 µM in the presence of wild type NEP or NEPv and reactions were stopped after 10 min at 37°C by the addition of an equal volume of 1∶1∶1 water:acetonitrile:TFA containing 2 mM tris(2-carboxyethyl)phosphine (Thermo Scientific). RP-HPLC spectra were recorded using an Agilent 1260 Infinity system. Injections of 20 µL were made for each sample and analytes were separated by elution on an Agilent Polaris C8-A stationary phase column (4.6×100 mm, 3 µm) at 1.5 mL min^−1 using a linear binary gradient of 10–90% acetonitrile in water with 0.1% (v/v) TFA over 15 minutes at 40°C. Signal intensity for intact endothelin-1 was monitored at 210 nm and relative peak area was determined by manual integration of the baseline. Kinetic parameters were derived from the activity data as described above.

The subject of data set [2] is Aβ1–40. The experiment in a line: Endpoint degradation assay with ELISA read-out. The format is biochemical, human. Particulars: 1 hour at room temperature; Aβ40 ELISA. The procedure:
(§3) Supplementary file pone.0104001.s001.tif: Figure S1 Degradation of Aβ1–40 and Aβ1–42 by NEP wild-type and NEPv. Measurement of the degredation of Aβ1–40 (A) and Aβ1–42 (B) was performed by incubating peptide and either wild-type NEP (▪) or NEPv (Δ) for 1 hour at room temperature. The reaction was stopped by the addition of 1.10-phenanthroline to a final concentration of 10 µM. 50 µl (Aβ40 analysis) or 100 µl (Aβ42 analysis) of the reaction mix was transferred to an ELISA plate. Aβ40 and Aβ42 concentrations after degradation were determined using Invitrogen human Aβ40 ELISA kit (Invitrogen, California, US), and Innotest β-amyloid RUO (1–42) ELISA (Innogenetics, Gent, Belgium). […] (TIF) Click here for additional data file.

A further data set concerns the target T3, Aβ1–42 (Homo sapiens, UniProt P05067).
T3 construct: Aβ 1-42^a
The experiment in a line: Endpoint degradation assay with ELISA read-out. It counts as biochemical. To be noted: 1 hour at room temperature; Aβ42 ELISA. The protocol:
as §3
(In general: In an ELISA, binding on a coated surface is turned into a signal by an enzyme label.)

Bounds are passed on as bounds.

T1 sequence (P08473 53-750 G400V/G715K): as the sequence (P08473 53-750) above, with G348V, G663K counted along it
NEP G714K, sequence (P08473 53-750 G715K): as the sequence (P08473 53-750) above, with G663K counted along it
NEP G399V, sequence (P08473 53-750 G400V): as the sequence (P08473 53-750) above, with G348V counted along it
T3 sequence (P05067 672-713): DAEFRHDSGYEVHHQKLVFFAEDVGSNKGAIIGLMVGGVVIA

One may read the IC50 as the concentration at which inhibition is half-maximal. Higher therefore signals weaker potency. Turning to `CC(C)C[C@H](NP(=O)(O)O[C@@H]1O[C@@H](C)[C@H](O)[C@@H](O)[C@H]1O)C(=O)N[C@@H](Cc1c[nH]c2ccccc12)C(=O)O` [Phosphoramidon, phosphoramidon], the “potency lower on NEPv than for wild-type NEP” value at NEPv (NEP G399V/G714K) (NEPv versus wild-type NEP) is > 2000 fold. Besides, the IC50 was 21000 nM against NEPv (NEP G399V/G714K) (enzyme NEPv 20 nM, Aβ1–40 substrate 10 µM); < 10 nM on wild-type NEP; 610 nM on NEP G399V; 100 nM against NEP G714K.

B1: wild-type NEP: soluble extracellular domain (amino acids 52–749) of wild type human NEP (neprilysin), tagged, recombinantly expressed (protein, UniProt P08473 52-749, looked up, fragment)
chain: YDDGICKSSDCIKSAARLIQNMDATTEPCTDFFKYACGGWLKRNVIPETSSRYGNFDILRDELEVVLKDVLQEPKTEDIVAVQKAKALYRSCINESAIDSRGGEPLLKLLPDIYGWPVATENWEQKYGASWTAEKAIAQLNSKYGKKVLINLFVGTDDKNSVNHVIHIDQPRLGLPSRDYYECTGIYKEACTAYVDFMISVARLIRQEERLPIDENQLALEMNKVMELEKEIANATAKPEDRNDPMLLYNKMTLAQIQNNFSLEINGKPFSWLNFTNEIMSTVNISITNEEDVVVYAPEYLTKLKPILTKYSARDLQNLMSWRFIMDLVSSLSRTYKESRNAFRKALYGTTSETATWRRCANYVNGNMENAVGRLYVEAAFAGESKHVVEDLIAQIREVFIQTLDDLTWMDAETKKRAEEKALAIKERIGYPDDIVSNDNKLNNEYLELNYKEDEYFENIIQNLKFSQSKQLKKLREKVDKDEWISGAAVVNAFYSSGRNQIVFPAGILQPPFFSAQQSNSLNYGGIGMVIGHEITHGFDDNGRNFNKDGDLVDWWTQQSASNFKEQSQCMVYQYGNFSWDLAGGQHLNGINTLGENIADNGGLGQAYRAYQNYIKKNGEEKLLPGLDLNHKQLFFLNFAQVWCGTYRPEYAVNSIKTDVHSPGNFRIIGTLQNSAEFSEAFHCRKNSYMNPEKKCRV
modifications: extracellular domain tag
notes: soluble extracellular domain (amino acids 52–749) of wild type human NEP (neprilysin), tagged, recombinantly expressed
As a reminder, the Km is the concentration of substrate that gives half-maximal velocity. A word on the kcat: it is the number of substrate molecules converted per active site and unit of time at saturation. By EC50 is commonly meant the concentration needed to bring the measured effect to its halfway point. As to B1, the Michaelis constant (Km) in the data set on ANP amounted to 8.4 ± 0.8 µM; in the data set with Angiotensin it was 8.6 ± 0.9 µM; in the data set on Arg-vasopressin, 6.2 ± 1 µM; in the data set on Aβ1–40 [1], 104 ± 20 µM; in the data set on Bradykinin it was 32 ± 5 µM; with GLP-1, 24 ± 4 µM. The Michaelis constant (Km) with GRP was 150 ± 30 µM; in the data set on Glucagon, 25 ± 5 µM; in the data set on Neurokinin A, 9.3 ± 1 µM; in the data set with Neurokinin B, 22 ± 2 µM; with Neurotensin, 16 ± 2 µM; in the data set with Nociceptin it was 20 ± 1 µM. In addition, the Km amounted to 7.4 ± 0.9 µM in the data set with Somatostatin 14; 16 ± 1 µM in the data set on Substance P; 24 ± 0.5 µM in the data set with α-endorphin; 13 ± 1 µM with γ-endorphin; 53 ± 10 µM in the data set with Endothelin-1. Besides, the catalytic constant (kcat) in the data set on ANP came out at 7.1 ± 0.2 s⁻¹; with Angiotensin it was 8.2 ± 0.3 s⁻¹; in the data set on Arg-vasopressin it was 2.8 ± 0.2 s⁻¹; in the data set on Aβ1–40 [1] it was 0.83 ± 0.1 s⁻¹; in the data set on Bradykinin, 16 ± 1 s⁻¹; in the data set with GLP-1, 3.3 ± 0.3 s⁻¹. Moreover, the kcat was 26 ± 4 s⁻¹ in the data set with GRP; 4.5 ± 0.4 s⁻¹ in the data set on Glucagon; 17 ± 0.7 s⁻¹ in the data set on Neurokinin A; 20 ± 0.8 s⁻¹ with Neurokinin B; 13 ± 0.6 s⁻¹ with Neurotensin; 11 ± 0.3 s⁻¹ with Nociceptin. For the same molecule, the kcat with Somatostatin 14 was found to be 32 ± 1 s⁻¹; with Substance P it was 18 ± 0.6 s⁻¹; in the data set with α-endorphin it was 8.9 ± 0.08 s⁻¹; in the data set on γ-endorphin, 4.8 ± 0.2 s⁻¹; with Endothelin-1, 0.68 ± 0.06 s⁻¹. Besides, the EC50 with Aβ1–40 [2] came to 243 nM; in the data set with Aβ1–42, 144 nM.
